Source: the RNAGym collection of RNA variant scans (doi:10.1073/pnas.2313332121)
This sample holds only a part of the variants without activity.

B1: TPR 5TU (parent)
chain: GGAUCUUCUCGAUCUAACAAAAAAGACAAAUCUGCCACAAAGCUUGAGAGCAUCUUCGGAUGCAGAGGCGGCAGCCUUCGGUGGCGCGAUAGCGCCAACGUUCUCAACUAUGACACGCAAAACGCGUGCUCCGUUGAAUGGAGUUUAUCAUG

Variants of: B1
Test: polymerase ribozyme fitness, log enrichment relative to wild type (log ratio); higher = more active; in vitro selection for triplet polymerase activity
In short: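 To select mutant libraries of each subunit of a heterodimeric triplet polymerase ribozyme, built by PCR and transcribed, each was annealed with a biotinylated primer, partner subunit and triplets, then incubated frozen at −7 °C. Extended constructs were gel-excised, captured on streptavidin beads and amplified by RT-PCR, in one round carried out in triplicate. Illumina sequencing of input and output libraries kept genotypes with ≥10 input reads and ≥1 read per output. Fitness is the base-2 logarithm of genotype enrichment relative to wild-type enrichment, from inverse-variance-weighted replicate averages.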

Row | Variant | polymerase ribozyme fitness (log ratio)
1 | A12G C14U G92U U111C A138U | ≤ -4.2
2 | A12C A16U C87G | ≤ -4.2
3 | A12G A21U C27A G48C A49C C51A G84A C129A | ≤ -4.2
4 | A12C G62A A122U | -0.923
5 | A12G C69G A89U C96G U104A | -2.98
6 | A12G A20G A23U A89G C96U U111C G124C U130G G133C G140A | ≤ -4.2
7 | A12C U15A U56A | -0.709
8 | A12G A23C G25A A41G G94C C96U C116U G143C | ≤ -4.2
9 | A12G A30U U146G | -3.66
10 | A12C G58C C96G | -1.07
11 | A12G A91G A106G | -2.04
12 | A12C A21G C51U G83U | -2.15
13 | A12C A39U G59A A91U C93U A150C | ≤ -4.2
14 | A12C A30G | -3.77
15 | A12C U61G C75G C96U C131U G140U G141A | ≤ -4.2
16 | A12G A20U A23C G141U | ≤ -4.2
17 | A12G C57G G59A C96U U127G | -3.86
18 | A12C C14G A26U A49C G59A C131A | ≤ -4.2
19 | A12G A60G C93U | -0.294
20 | A12G A23U C85G A150G | ≤ -4.2
21 | A12G C85A C118A G136U | -3.83

Row | Variant | polymerase ribozyme fitness (log ratio)
22 | A12G C57G G83U A115G | -2.09
23 | A12C A37C C72A U90G U101A C103U A138G A142U | ≤ -4.2
24 | A12C A24G C85U C95U A120G | ≤ -4.2
25 | A12G A17G C93U A120G | -0.897
26 | A12C C18G A40U C123U G136U | -3.09
27 | A12C C35U G86A C93U | -1.43
28 | A12C G71U C93U A97G C103U C131G G141C | ≤ -4.2
29 | A12G A37G C87U U109G U144C U145C C149G | ≤ -4.2
30 | A12C A16G A41C A121U | -1.69
31 | A12C C14A A29G G81A A91G C93U C103A | ≤ -4.2
32 | A12C A23G U31C U55A | ≤ -4.2
33 | A12C C93U | -2.17
34 | A12C A26C G92C | -3.66
35 | A12C A19U U31G A41C C93A G141A | -3.98
36 | A12C A64G C85A G100C | ≤ -4.2
37 | A12G C35U U56C C57G G58U A60G | -0.194
38 | A12C G133C U145A | -1.11
39 | A12G A49C G74A C96U U102G G112U C125U | ≤ -4.2
40 | A12C A52G | -0.179
41 | A12G C14U G50A U53A C95U C99A C116U A150U | -4.15
42 | A12C C99A A119G U145C | -1.83

Row | Variant | polymerase ribozyme fitness (log ratio)
43 | A12G C75U C93U U144C | -0.389
44 | A12C A29C C85A G133A | ≤ -4.2
45 | A12C G50C A66C C79G C93U C95U U139C A147U | ≤ -4.2
46 | A12G A19U U45A U53A G88U | ≤ -4.2
47 | A12C C85G | -2.59
48 | A12G C14U | -0.925
49 | A12G A52C C93U A98U G124A | -2
50 | A12C C85U C116A A122G G143U | ≤ -4.2
51 | A12G A29U U44C G50C A91C C93G G94C C116U U144A | ≤ -4.2
52 | A12G A21C C32G G50U C125G | ≤ -4.2
53 | A12G C75G C93U C108U A110C | ≤ -4.2
54 | A12C A98G | -0.18
55 | A12G C14G G92C | -2.86
56 | A12G C63U | -0.0387
57 | A12C C57A G83U G136C | -3.78
58 | A12C A17U U53A C96A U139G | -3.83
59 | A12G A23C A47C A60G C93U | ≤ -4.2
60 | A12G A16U A26U G83U C87G U145C | ≤ -4.2
61 | A12C A20U U61A G92U C131A | ≤ -4.2
62 | A12G A98U | -0.71
63 | A12G C14G A22G U61A G71A C99U C123U A142G | ≤ -4.2

Row | Variant | polymerase ribozyme fitness (log ratio)
64 | A12C G58C G94C | -1.43
65 | A12C U139A | ≤ -4.2
66 | A12G C57U C87U C103G | -2.19
67 | A12C C35A C85G C103G C118G G141C | ≤ -4.2
68 | A12C C129G | -3.9
69 | A12C A20G A37C C51U G58C A91C | ≤ -4.2
70 | A12G A52U C76U C93U A120U | -2.12
71 | A12C A23C C54A G81U G92C C99A | ≤ -4.2
72 | A12G C54G C116U | -0.574
73 | A12C A19C C99U | -1.52
74 | A12G C85A | -1.31
75 | A12G A20G A60G | -0.113
76 | A12G A26G G94C C95A A137G | -4
77 | A12G A47C G58C C69A C93A U144C | -3.84
78 | A12G A29U U31A G67U C72A G92U A137G | ≤ -4.2
79 | A12C C14U A22C U61G G65A G86A C93U U134G | ≤ -4.2
80 | A12G C54U U61A C72A C96U A98U C99A A142C | ≤ -4.2
81 | A12G A37U U55G A113C | ≤ -4.2
82 | A12G C14G C18U U31A U56G U101A | -2.32
83 | A12G C27U A40U A73G C87G C95A G124U G136A | ≤ -4.2
84 | A12C C85G A122C | -2.14
